Reference: US20020159958A1 (REGENTS OF UNIVERSITY OF CALIFORNIA, published 2002)

T1: purified streptococcal antigen (SA) I/II (Streptococcus mutans, UniProt P23504 39-1532)
T1 construct: Purified antigen as coated on ELISA plates; also called SA 1/11; purified SA I/II
T1 sequence (looked up): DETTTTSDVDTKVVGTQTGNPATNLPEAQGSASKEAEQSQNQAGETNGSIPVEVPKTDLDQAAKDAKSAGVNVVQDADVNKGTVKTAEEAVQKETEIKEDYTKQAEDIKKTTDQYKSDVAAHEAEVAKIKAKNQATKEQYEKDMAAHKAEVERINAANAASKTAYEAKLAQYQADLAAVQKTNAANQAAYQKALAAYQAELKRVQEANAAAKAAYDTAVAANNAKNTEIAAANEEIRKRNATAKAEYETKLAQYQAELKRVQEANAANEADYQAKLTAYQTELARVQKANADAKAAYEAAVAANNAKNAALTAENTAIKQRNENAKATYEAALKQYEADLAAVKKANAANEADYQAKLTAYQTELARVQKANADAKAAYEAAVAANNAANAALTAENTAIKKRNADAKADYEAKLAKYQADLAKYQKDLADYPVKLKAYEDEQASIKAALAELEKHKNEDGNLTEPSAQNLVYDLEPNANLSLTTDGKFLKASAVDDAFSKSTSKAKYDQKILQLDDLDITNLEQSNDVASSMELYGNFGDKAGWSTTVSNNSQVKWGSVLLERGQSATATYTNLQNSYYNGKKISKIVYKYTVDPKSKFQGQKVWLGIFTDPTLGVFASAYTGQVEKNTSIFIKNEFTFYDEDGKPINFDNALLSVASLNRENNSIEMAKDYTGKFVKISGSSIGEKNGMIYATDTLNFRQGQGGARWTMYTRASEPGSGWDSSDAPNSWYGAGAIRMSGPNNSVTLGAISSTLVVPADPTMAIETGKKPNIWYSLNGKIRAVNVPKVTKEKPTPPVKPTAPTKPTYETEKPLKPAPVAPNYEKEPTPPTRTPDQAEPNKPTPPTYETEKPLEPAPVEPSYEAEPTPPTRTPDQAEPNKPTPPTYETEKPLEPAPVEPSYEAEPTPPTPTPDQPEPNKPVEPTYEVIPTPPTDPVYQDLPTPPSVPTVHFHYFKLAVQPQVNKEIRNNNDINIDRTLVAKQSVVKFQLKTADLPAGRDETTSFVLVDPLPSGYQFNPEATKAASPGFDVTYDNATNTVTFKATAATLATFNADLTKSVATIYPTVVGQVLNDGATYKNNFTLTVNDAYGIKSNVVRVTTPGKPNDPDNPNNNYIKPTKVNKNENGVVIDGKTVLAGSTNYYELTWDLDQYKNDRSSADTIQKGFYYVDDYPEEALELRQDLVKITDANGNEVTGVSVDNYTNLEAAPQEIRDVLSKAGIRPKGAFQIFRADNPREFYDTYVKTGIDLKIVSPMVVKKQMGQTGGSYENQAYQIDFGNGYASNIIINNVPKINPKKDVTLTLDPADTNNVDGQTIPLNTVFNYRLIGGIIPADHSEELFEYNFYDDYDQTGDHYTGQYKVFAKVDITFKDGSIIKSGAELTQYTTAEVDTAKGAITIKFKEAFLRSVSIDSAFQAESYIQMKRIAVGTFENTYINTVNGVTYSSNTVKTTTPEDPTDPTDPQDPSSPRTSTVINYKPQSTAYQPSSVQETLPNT

B1: mouse J chain expressed alone in plants (other, UniProt P01592 22-159, looked up)
chain: GDDEATILADNKCMCTRVTSRIIPSTEDPNEDIVERNIRIVVPLNNRENISDPTSPLRRNFVYHLSDVCKKCDPVEVELEDQVVTATQSNICNEDDGVPETCYMYDRNKCYTTMVPLRYHGETKMVQAALTPDSCYPD
notes: Tested as crude plant extract; also called plants expressing only J chain
B2: protection protein (amino acids 1-606 of rabbit polyimmunoglobulin receptor) expressed alone in plants (receptor)
chain: QSSLLGPSSIFGPGEVNVLEGDSVSITCYYPTTSVTRHSRKFWCREEESGRCVTLASTGYTSQEYSGRGKLTDFPDKGEFVVTVDQLTQNDSGSYKCGVGVNGRGLDFGVNVLVSQKPEPDDVVYKQYESYTVTITCPFTYATRQLKKSFYKVEDGELVLIIDSSSKEAKDPRYKGRITLQIQSTTAKEFTVTIKHLQLNDAGQYVCQSGSDPTAEEQNVDLRLLTPGLLYGNLGGSVTFECALDSEDANAVASLRQVRGGNVVIDSQGTIDPAFEGRILFTKAENGHFSVVIAGLRKEDTGNYLCGVQSNGQSGDGPTQLRQLFVNEEIDVSRSPPVLKGFPGGSVTIRCPYNPKRSDSHLQLYLWEGSQTRHLLVDSGEGLVQKDYTGRLALFEEPGNGTFSVVLNQLTAEDEGFYWCVSDDDESLTTSVKLQIVDGEPSPTIDKFTAVQGEPVEITCHFPCKYFSSEKYWCKWNDHGCEDLPTKLSSSGDLVKCNNNLVLTLTLDSVSEDDEGWYWCGAKDGHEFEEVAAVRVELTEPAKVAVEPAKVPVDPAKAAPAPAEEKAKARCPVPRRRQWYPLSRKLRTSCPEPRLLAEEVAVQSAE
notes: also called plants expressing only protection protein; free protection protein

Experiments:
[1] = target: T1, purified streptococcal antigen (SA) I/II; test: ELISA on SA I/II, plant extract
[2] = target: T1, purified streptococcal antigen (SA) I/II; test: ELISA on purified SA I/II, plant extract

| Binder | binding result [1] | binding result [2] |
| --- | --- | --- |
| B1 | no binding | – |
| B2 | – | no binding |
